Source: the Immune Epitope Database (IEDB)
pIC50, pKd: −log10 of the molar value. Values belong to the sequence of their own block, whether it stands above or below them.

Columns and labels:
[1] = biological target: HLA-A*24:02; test: IEDB peptide-MHC binding, purified MHC/competitive/fluorescence; ≥ and ≤ were set here for values at or beyond the usual limits of such assays
[2] = biological target: HLA-B*07:02; test: as above
[3] = biological target: HLA-B*08:01; test: as above
[4] = biological target: HLA-B*15:01; test: as above
[5] = biological target: HLA-A*01:01; test: IEDB peptide-MHC binding, purified MHC/competitive/fluorescence; filed as Kd, often an IC50 or EC50 that approximates it; ≥ and ≤ were set here for values at or beyond the usual limits of such assays
[6] = biological target: HLA-A*26:01; test: as above
[7] = biological target: HLA-A*01:01; test: IEDB peptide-MHC binding, purified MHC/direct/fluorescence; filed as Kd, often an IC50 or EC50 that approximates it; ≥ and ≤ were set here for values at or beyond the usual limits of such assays
[8] = biological target: HLA-A*02:03; test: as above
[9] = biological target: HLA-A*02:12; test: as above
[10] = biological target: HLA-A*02:16; test: as above
[11] = biological target: HLA-A*02:19; test: as above
[12] = biological target: HLA-A*03:01; test: as above
[13] = biological target: HLA-A*23:01; test: as above
[14] = biological target: HLA-A*24:03; test: as above
[15] = biological target: HLA-A*68:02; test: as above
[16] = biological target: HLA-A*02:01; test: IEDB peptide-MHC binding, purified MHC/competitive/fluorescence; filed as Kd, often an IC50 or EC50 that approximates it; ≥ and ≤ were set here for values at or beyond the usual limits of such assays
[17] = biological target: HLA-A*69:01; test: as above
[18] = biological target: HLA-B*15:01; test: as above
[19] = biological target: HLA-B*15:17; test: as above
[20] = biological target: HLA-B*18:01; test: as above
[21] = biological target: HLA-B*27:03; test: as above
[22] = biological target: HLA-B*39:01; test: as above
[23] = biological target: HLA-B*46:01; test: as above
[24] = biological target: HLA-B*51:01; test: as above
[25] = biological target: HLA-B*57:01; test: as above
[26] = biological target: HLA-A*02:11; test: IEDB peptide-MHC binding, purified MHC/direct/fluorescence; filed as Kd, often an IC50 or EC50 that approximates it; ≥ and ≤ were set here for values at or beyond the usual limits of such assays
[27] = biological target: HLA-A*11:01; test: as above; details: source organism: Rickettsia sibirica 246
[28] = biological target: HLA-B*15:01; test: as above; details: source organism: Reston ebolavirus - Reston
[29] = biological target: HLA-A*29:02; test: as above
[30] = biological target: HLA-A*03:01; test: IEDB peptide-MHC binding, purified MHC/competitive/fluorescence; filed as Kd, often an IC50 or EC50 that approximates it; ≥ and ≤ were set here for values at or beyond the usual limits of such assays
[31] = biological target: HLA-A*02:01; test: IEDB peptide-MHC binding, purified MHC/competitive/fluorescence; ≥ and ≤ were set here for values at or beyond the usual limits of such assays; details: source organism: Zaire ebolavirus
[32] = source organism: Vaccinia virus Copenhagen
[33] = source organism: Escherichia coli
[34] = source organism: Influenza A virus H3N2
[35] = source organism: Influenza A virus (A/Memphis/1/1978(H1N1))
[36] = source organism: Vaccinia virus
[37] = source organism: Rickettsia sibirica 246
[38] = source organism: Sudan ebolavirus
[39] = source organism: Reston ebolavirus
[40] = source organism: Bacillus anthracis str. A0488
[41] = source organism: Orthohantavirus andesense
[42] = source organism: Zaire ebolavirus
[43] = source organism: Escherichia coli O157:H7 str. Sakai

Sequence: YANCSSISI
pIC50 [1, 32]: 5.88 | pIC50 [2, 32]: ≤ 3.76 | pIC50 [3, 32]: ≤ 2.97 | pIC50 [4, 32]: 4.61

pKd [5, 33]: ≤ 4.70 | pKd [6, 33]: 5.88
Sequence: AAPLMQSLY

Sequence: AVDADDSHF
pKd ([7]; source organism: Influenza A virus (A/New York/140/1999(H3N2))): ≤ 4.70 | pKd [8, 34]: ≤ 4.70 | pKd [9, 34]: ≤ 4.70 | pKd [10, 34]: ≤ 4.70 | pKd [11, 34]: ≤ 4.70 | pKd [12, 34]: ≤ 4.70 | pKd [13, 34]: ≤ 4.70 | pKd [14, 34]: ≤ 4.70 | pKd [15, 34]: ≤ 4.70 | pKd [16, 35]: ≤ 4.70 | pKd [6, 35]: ≤ 4.70 | pKd [17, 35]: ≤ 4.70 | pKd [18, 35]: ≤ 4.70 | pKd [19, 35]: ≤ 4.70 | pKd [20, 35]: ≤ 4.70 | pKd [21, 35]: ≤ 4.70 | pKd [22, 35]: ≤ 4.70 | pKd [23, 35]: ≤ 4.70 | pKd [24, 35]: ≤ 4.70 | pKd [25, 35]: ≤ 4.70

Sequence: FLRYLLFGI
pIC50 [1, 36]: 4.78 | pIC50 [2, 36]: ≤ 3.00 | pIC50 [3, 36]: ≤ 3.71

Sequence: SVANIDRIK
pKd [8, 37]: ≤ 4.70 | pKd [26, 37]: ≤ 4.70 | pKd [9, 37]: ≤ 4.70 | pKd [10, 37]: ≤ 4.70 | pKd [11, 37]: ≤ 4.70 | pKd [12, 37]: ≤ 4.70 | pKd [27]: 8.22 | pKd [13, 37]: ≤ 4.70 | pKd [14, 37]: ≤ 4.70 | pKd [15, 37]: ≤ 4.70 | pKd [16, 37]: ≤ 4.70 | pKd [6, 37]: ≤ 4.70 | pKd [17, 37]: ≤ 4.70 | pKd [19, 37]: ≤ 4.70 | pKd [20, 37]: ≤ 4.70 | pKd [21, 37]: ≤ 4.70 | pKd [22, 37]: ≤ 4.70 | pKd [23, 37]: ≤ 4.70 | pKd [24, 37]: ≤ 4.70 | pKd [25, 37]: ≤ 4.70

Sequence: GVPPKVVSY
pIC50 [4, 38]: 4.24 | pKd [8, 39]: ≤ 4.70 | pKd [26, 39]: ≤ 4.70 | pKd [9, 39]: ≤ 4.70 | pKd [10, 39]: ≤ 4.70 | pKd [11, 39]: ≤ 4.70 | pKd [12, 39]: ≤ 4.70 | pKd [13, 39]: ≤ 4.70 | pKd [14, 39]: ≤ 4.70 | pKd [15, 39]: ≤ 4.70 | pKd [28]: 5.59 | pKd [16, 39]: ≤ 4.70 | pKd [6, 39]: ≤ 4.70 | pKd [17, 39]: ≤ 4.70 | pKd [20, 39]: ≤ 4.70 | pKd [21, 39]: ≤ 4.70 | pKd [22, 39]: ≤ 4.70 | pKd [23, 39]: ≤ 4.70 | pKd [24, 39]: ≤ 4.70 | pKd [25, 39]: ≤ 4.70

Sequence: LLDNSMFTY
pKd [5, 40]: 8.42

Sequence: TLDSEDGLY
pKd [5, 40]: 8.80

Sequence: STGKSIKFK
pKd [8, 41]: ≤ 4.70 | pKd [26, 41]: ≤ 4.70 | pKd [9, 41]: ≤ 4.70 | pKd [10, 41]: ≤ 4.70 | pKd [11, 41]: ≤ 4.70 | pKd [14, 41]: ≤ 4.70 | pKd [29, 41]: ≤ 4.70 | pKd [15, 41]: ≤ 4.70 | pKd [16, 41]: ≤ 4.70 | pKd [30, 41]: 7.83 | pKd [6, 41]: ≤ 4.70 | pKd [17, 41]: ≤ 4.70 | pKd [18, 41]: ≤ 4.70 | pKd [20, 41]: ≤ 4.70 | pKd [21, 41]: ≤ 4.70 | pKd [22, 41]: ≤ 4.70 | pKd [23, 41]: ≤ 4.70 | pKd [24, 41]: ≤ 4.70 | pKd [25, 41]: ≤ 4.70

Sequence: FLLQRWGGT
pIC50 [31]: 5.08 | pIC50 [3, 42]: 5.20

Sequence: YRNKPSIAT
pIC50 [3, 36]: ≤ 3.89

pKd [5, 43]: 7.49 | pKd [30, 43]: 5.35
Sequence: GSQYVSLAY

Sequence: FLLIHQGMH
pIC50 [31]: 5.02 | pIC50 [3, 42]: ≤ 3.64 | pIC50 [4, 42]: ≤ 3.64

Sequence: LSDAIFDDL
pKd ([7]; source organism: Sudan ebolavirus - Maleo (1979)): 5.73 | pKd [8, 42]: ≤ 4.70 | pKd [26, 42]: ≤ 4.70 | pKd [9, 42]: ≤ 4.70 | pKd [10, 42]: ≤ 4.70 | pKd [11, 42]: ≤ 4.70 | pKd [12, 42]: ≤ 4.70 | pKd [13, 42]: ≤ 4.70 | pKd [14, 42]: ≤ 4.70 | pKd [29, 42]: ≤ 4.70 | pKd [15, 42]: ≤ 4.70 | pKd [16, 42]: ≤ 4.70 | pKd [6, 42]: ≤ 4.70 | pKd [17, 42]: ≤ 4.70 | pKd [18, 42]: ≤ 4.70 | pKd [19, 42]: ≤ 4.70 | pKd [20, 42]: ≤ 4.70 | pKd [21, 42]: ≤ 4.70 | pKd [22, 42]: ≤ 4.70 | pKd [23, 42]: ≤ 4.70 | pKd [24, 42]: ≤ 4.70 | pKd [25, 42]: ≤ 4.70

Sequence: GFPRCRYVH
pIC50 [1, 38]: 5.91 | pIC50 [2, 38]: ≤ 4.08 | pIC50 [3, 42]: 4.91

Sequence: ERLAKLTEA
pIC50 [31]: ≤ 3.76 | pIC50 [3, 42]: ≤ 3.97

Sequence: EPPLVRHAC
pIC50 [2, 36]: ≤ 3.79 | pIC50 [3, 36]: ≤ 3.28
